Data: the RNAGym collection of RNA variant scans (doi:10.1073/pnas.2313332121)

B1: TPR t1 (parent)
chain: GACCAAUCUGCCCUCAGAGCUCGAGAACAUCUUCGGAUGCAGAGGAGGCAGGCUUCGGUGGCGCGAUAGCGCCAACGUCCUCAACCUCCAAUGCAUCCCACCACAUGAUGAUGCCUGAAGAGCCUUGGUUUUUUG

Variants of: B1
Experiment: polymerase ribozyme fitness, log enrichment relative to wild type (log ratio); higher = more active; in vitro selection for triplet polymerase activity
In short: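 PCR was used to build mutant libraries for each subunit of a heterodimeric triplet polymerase ribozyme, which were then transcribed. A single in vitro selection round, in triplicate, used a frozen incubation at −7 °C and recovered extended constructs by gel excision, streptavidin beads and RT-PCR. Fitness is the logarithm of genotype enrichment relative to wild-type enrichment, averaged over replicates with inverse-variance weights. The logarithm is base 2, and after Illumina sequencing only genotypes with ≥10 input reads and ≥1 read per output were kept.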

Variant | polymerase ribozyme fitness (log ratio)
GACCAAUCUGCCCUCAGAGCUCGAGAACAUCUUCGGAUGCAGAGGAGGAAGGCUUCGGUGGCGCGAUAGCGCCAACGUCCUCAACAUCCAAUGCAUCCCACCACAUGAUGAUGCCUGAAGAGCCUUGGUUUUUUG [C49A C86A] | -2.07
GACCAAUCUGCCCUCAGAGCUCGAGAACAUCUUCGGAUGCAGAGGAGGAAGGCUUCGGUGGCGCGAUAGCGCCAACGUCCUCAACCUCUAACGCGACCCACCACAUGAUGAUACCUGAAGAGCCUUGGUUUUAUG [C49A C89U U92C A95G U96A G113A U133A] | -3.76
GACCAAUCUGCCCUCAGAGCUCGAGAACAUCUUCGGAUGCAGAGGAGGAAGGCUUCGGUGUCGCGAUAGCGCCAACGUCCUCCACCUCCAAUGCAUCCCACCACAUGAUGAUGCCUGAAGAGCCUUGGCUUUUUG [C49A G61U A83C U129C] | -0.881
GACCAAUCUGCCCUCAGAGCUCGAGAACAUCUUCGGAUGCAGAGGAGGAAGGCUUCGAUGGCGCGAUAGCGCCAACGUCCUCAACCUCCAAUGCAUCCCACCACAUGAUGAUGCCUGAAGAGCCUUGGUUUUUUG [C49A G58A] | -0.0101
GACCAAUCUGCCCUCAGAGCUCGAGAACAUCUUCGGAUGCAGAGGAGGAAGGCUUCGGUGGCGCGAUAGCGCGAACGUCCUCAACCUCCAAUGCAUCCCACCACAGGAUGAUGCCUGAAGAGCCUUGGUCUUUUG [C49A C73G U106G U130C] | -2.23
GACCAAUCUGCCCUCAGAGCUCGAGAACAUCUUCGGAUGCAGAGGAGGAAGGCUUCGGUAGCGCGAUAGCGCCAACGUCCUCAACCUCCAAUGCAUCCCACCACAUGAUGAUGCCUGAAGCACCUUGGUUUUUUG [C49A G60A A121C G122A] | 0.833
GACCAAUCUGCCCUCAGAGCUCGAGAACAUCUUCGGAUGCAGAGGAGGAAGGCUUCGGUGGCGCGAUAGCGCCAACGUCCUCAACCUCAAAUGCAUCCCACCACAUGAUGAUGCCUGAAGAGCCUUGGUUUUUUG [C49A C89A] | -1.76
GACCAAUCUGCCCUCAGAGCUCGAGAACAUCUUCGGAUGCAGAGGAGGAAGGCUUCGGUGGCGCGAUAGCGCAAACGUCCUCAACCUCCAAUGCAUCCCAGCACAUGAUGAUGCAUGAAAAGCCUUGGUUUUUUG [C49A C73A C101G C115A G120A] | -2.56
GACCAAUCUGCCCUCAGAGCUCGAGAACAUCUUCGGAUGCAGAGGAGGAAGGCUUCGGUGGCGCGAUAGCGCCAACGUCAUCAACCUCCAAUGCAUCCCACCACAUGAUGAAGCCUGAAGAGCCUUGGUUUUUUG [C49A C80A U112A] | -5.57
GACCAAUCUGCCCUCAGAGCUCGAGAACAUCUUCGGAUGCAGAGGAGGAAGGCUUCGGUGGCACGAUAGAGCCAACGUCCUCAACCUCCAAUGCAUCCCACCACAUGACGAUGCCUGAAGAGCCUUGGUUUUUUG [C49A G63A C70A U109C] | -7.14
GACCAAUCUGCCCUCAGAGCUCGAGAACAUCUUCGGAUGCAGAGGAGGAAGACUUCGGUGGCGCGAUAGCGCCAACGUCCUCAACCUCCAAUGCAUCCCACCACAUGAUGAUGCCUGAAGAGCCUUGGUUUUUUG [C49A G52A] | -0.855
GACCAAUCUGCCCUCAGAGCUCGAGAACAUCUUCGGAUGCAGAGGAGGAAGGCUUCGGUGGCGCGAUAGCGCCAACGUCCUCAACCUCCAAUGCAUCCCACCACAUGAUGAUGCCUGAAGAGCUUUGGUUUCUUG [C49A C124U U132C] | 1.03
GACCAAUCUGCCCUCAGAGCUCGAGAACAUCUUCGGAUGCAGAGGAGGAAGGCUUCGGUGGCGCGAUAGCGCCAACGUACUCAACCUCCAAUGCAUCCCACCACAUGAUGAUGCCUGAGGAGCCUUGGUUUUUUG [C49A C79A A119G] | -2.87
GACCAAUCUGCCCUCAGAGCUCGAGAACAUCUUCGGAUGCAGAGGAGGAAGGCUUCGCUGGCGCGAUAGCGCCAACGUCCUCAACCUGCAUUGCAUCCCACCAGAUGAUGAUGCCUGAGGAGCCUUGGUUUUGUG [C49A G58C C88G A91U C104G A119G U133G] | -7.73
GACCAAUCUGCCCUCAGAGCUCGAGAACAUCUUCGGAUGCAGAGGAGGAAGGCUUCGGUGGCGCGAUAGCGCCAACGUCCUCAACCUCCAAUGCAUCCCACCACAUGAUGAUGCCUGAAGAGACUUGGUUUUUUG [C49A C123A] | 0.189
GACCAAUCUGCCCUCAGAGCUCGAGAACAUCUUCGGAUGCAGAGGAGGAAGGCUUCGGUGGCGCGAUAGCGCCAACGUCCUCAACCUCCAAUGCAUCCCACCACAUGAUGAUGCCUGAAGAGGCUUGGUUUUUUG [C49A C123G] | 0.461
GACCAAUCUGCCCUCAGAGCUCGAGAACAUCUUCGGAUGCAGAGGAGGAAGGCUUCGGUGGCGCGAUAGCGCAAACGUCCUCAACCUUCAUUGCAUCCCACCACAUGAUGAUGCCUGAAGAGCCUUGGUUUUUUG [C49A C73A C88U A91U] | -1.03
GACCAAUCUGCCCUCAGAGCUCGAGAACAUCUUCGGAUGCAGAGGAGGAAGGCUUCGGUGGCGCGAUAGCGCGAACGUCCUCAACCUCCAAUGCAUCCCACCACAUGAUGAUGCCUGAAGAGCCUUGGUUUUUUG [C49A C73G] | -1.88
GACCAAUCUGCCCUCAGAGCUCGAGAACAUCUUCGGAUGCAGAGGAGGAAGGCUUCGGUGGCGCGAUAGCGCAAACGUCCUCAACCUCCAAUGCAUCCCACCACAUGAUGAUGCCUGAAGAGCCUUGGUUUUUUG [C49A C73A] | 0.508
GACCAAUCUGCCCUCAGAGCUCGAGAACAUCUUCGGAUGCAGAGGAGGAAGGCUUCGGUGGCGCGAUAGCGCCAACGUCCUCAACCUCCAAUGCAUCCCACCAGAUGAUGAUGCCUGAAGAGCCUUGGUUUUUUG [C49A C104G] | -6.42
GACCAAUCUGCCCUCAGAGCUCGAGAACAUCUUCGGAUGCAGAGGAGGAAGGCUUCGGUGGCGCGAUAGCGCAAACGUCCUCAACCUCCAAUGCAUCCCACCACAUGAUGAUGCCUGAAGAGCCUUGGUCUUUUG [C49A C73A U130C] | 0.174

Variant | polymerase ribozyme fitness (log ratio)
GACCAAUCUGCCCUCAGAGCUCGAGAACAUCUUCGGAUGCAGAGGAGGAACGCUUCCGUGGCGCGAUAGCGUCAACGUCCUCAACCUCCAAUGCAUCCCACCACAUGAUGAUGCGUGAAGAGCCUUGGUUUUUUG [C49A G51C G57C C72U C115G] | -3.69
GACCAAUCUGCCCUCAGAGCUCGAGAACAUCUUCGGAUGCAGAGGAGGAAGGCUUCGGUGUCGCGAUAGCGCCAACGUCCUCAACCCCCAAUGCAUCACACCACAUGAUGAUGCCUGAAGAGCCUUGGUUUUUUG [C49A G61U U87C C98A] | -3.8
GACCAAUCUGCCCUCAGAGCUCGAGAACAUCUUCGGAUGCAGAGGAGGAAGGCUUCGGUGACGCGAUAGCGCCAACGUCCUCAACCUCGAAUGCAUCCCACCACAGGAUGAUGCCUGAAGAGUCUUGGUUUUUUG [C49A G61A C89G U106G C123U] | -3.4
GACCAAUCUGCCCUCAGAGCUCGAGAACAUCUUCGGAUGCAGAGGAGGAAGGCUUCGGUGACGCGAUAGCGCCAACGUCCUCAACCUCCAAUGCAUCCCACCACAUGAUGAUGCCUGAAGAGCCUUGGUUUUUUG [C49A G61A] | 0.617
GACCAAUCUGCCCUCAGAGCUCGAGAACAUCUUCGGAUGCAGAGGAGGAAGGCUUCGGUGGCGCGAUAGCGCCAACGUCCUCAACCUUCAAUGUAUCCCACCACAUGAUGAUGCCUGAAGAGUCUUGGUUUGUUU [C49A C88U C94U C123U U132G G135U] | -1.38
GACCAAUCUGCCCUCAGAGCUCGAGAACAUCUUCGGAUGCAGAGGAGGAAGGCUUCGGUGACGCGAUAGCGCCAACGUCCUCAACCUCCAAUGCAUCCCACCACAUGAUUAUGCCUGAAGAGCCCUGGUUUUUUG [C49A G61A G110U U125C] | -2.14
GACCAAUCUGCCCUCAGAGCUCGAGAACAUCUUCGGAUGCAGAGGAGGAAGGCUUCUGUGGCGCGAUAGCGCCAACGUCCUCAACCUCCAAUGCAUCCCACCACAUGAUGAUGCCUGAAGAGCCUUGGUUUUUUG [C49A G57U] | -0.512
GACCAAUCUGCCCUCAGAGCUCGAGAACAUCUUCGGAUGCAGAGGAGGAAGGCUUCAGUGGCGCGAUAGCGCCAACGUCCUCAACCUCCAAUGCAUCCCACCACAUGAUGAUGCCUGAAGAGCCUUGGUUUUUUG [C49A G57A] | -1.5
GACCAAUCUGCCCUCAGAGCUCGAGAACAUCUUCGGAUGCAGAGGAGGAAGCCUUCGGUGGCGCGAUAGCGACAACGUCCUCAACCUCCAAUGCACCCCACCACAUGAUGAUGCCUGAAGAGCCUUGGUUUUUUG [C49A G52C C72A U96C] | -0.937
GACCAAUCUGCCCUCAGAGCUCGAGAACAUCUUCGGAUGCAGAGGAGGAAGGCUUCGGUGCCGCGAUAGCGCCAACGUCCUCAACCUUCAAUGCAUCCCACCACAUGAUGAUGCCUAAAGAGCCUUGGUUUUUUC [C49A G61C C88U G117A G135C] | -3.6
GACCAAUCUGCCCUCAGAGCUCGAGAACAUCUUCGGAUGCAGAGGAGGAAGGCUUCGGUGCCGCGAUAGCGCCAACGUCCUCAACCUCCAAUGCAUCCCACCACAUGAUUAUGCCUGAAGAGCCCUGGUUUUUUG [C49A G61C G110U U125C] | -4.57
GACCAAUCUGCCCUCAGAGCUCGAGAACAUCUUCGGAUGCAGAGGAGGAAGGCUUCGGUAGCGCGAUAGCGCCAACGUCCUCAACCUCCAAUGCAUCCCACCACAUGAUGAUGCCUGAAGAGCCUUGGUUUUUUG [C49A G60A] | -0.214
GACCAAUCUGCCCUCAGAGCUCGAGAACAUCUUCGGAUGCAGAGGAGGAAGGCUUCGGUUGCGCGAUAGCGCCAACGUCCUCAACCUCCAAUGCAUCCCACCACAUGAUGAUGCCUGAAGAGCCUUGGUUUUUUG [C49A G60U] | 0.254
GACCAAUCUGCCCUCAGAGCUCGAGAACAUCUUCGGAUGCAGAGGAGGAAGGCUUCGGUGGCGCGAUAGCGCCAACGUCCUCAACCUCCAAUGCAUCCCACCACAUGAUGAUGUCUGAAGAGCCUUGGUUUUUUG [C49A C114U] | -1.61
GACCAAUCUGCCCUCAGAGCUCGAGAACAUCUUCGGAUGCAGAGGAGGAAGGCUUCGGUGGCGCGAUAGCGCCAACGUCCUCAACCUACAAUGCAUCCCACCACAUGAUGAUGCCUGAAGAGCCUUUGUUUUUUG [C49A C88A G127U] | -2.42
GACCAAUCUGCCCUCAGAGCUCGAGAACAUCUUCGGAUGCAGAGGAGGAAGGCUUCGGUGGCGCGAUAGCGUCAACGUCCUCAACCUCCAAUGCAUCCCACCACAUGAUGAUACCUGAAGAGCCUUGCUUUUUUG [C49A C72U G113A G128C] | -4.46
GACCAAUCUGCCCUCAGAGCUCGAGAACAUCUUCGGAUGCAGAGGAGGAAGGCUUCGGUGGCGCGAUAGCGCCAACGUACUCAACCUCCAAUGCAUCCCACCACAUGAUGAUGCCUGAAGAGCCUUGGUUUUUUG [C49A C79A] | -3.94
GACCAAUCUGCCCUCAGAGCUCGAGAACAUCUUCGGAUGCAGAGGAGGAAGGCUUCGGUGCCGCGAUAGCGCCAACGUCGUCAACCUCCAAUGCAUCCCACCAAAUGAUGAUGCCUUAAGAGCCUUGGUUUUUUG [C49A G61C C80G C104A G117U] | -8.34
GACCAAUCUGCCCUCAGAGCUCGAGAACAUCUUCGGAUGCAGAGGAGGAAGGCUUCGGUGGCGCGAUAGCGCCAACGUCCUCAACCUCCAAUGCAUCCCACCAGAUGAUGCUGCCUGAAGAGCCUUGGUUUUUUG [C49A C104G A111C] | -6.5
GACCAAUCUGCCCUCAGAGCUCGAGAACAUCUUCGGAUGCAGAGGAGGAAGGCUUCGGUGGCUCGAUAGCGCCAACGUCCUCAACCUCCAAUGCAUCCCACCACAUGAUGAUGCCUGAAGAGCCUUGGUUUUUUG [C49A G63U] | -1.35
GACCAAUCUGCCCUCAGAGCUCGAGAACAUCUUCGGAUGCAGAGGAGGAAGGCUUCGGUGGCGCGAUAGCGCCAACGUCCUCAAUCUCCAAUGCAUCCCACCACAUGAUGAUACCUGACGAGCCUUGGUUUUUUG [C49A C85U G113A A119C] | -4.02
